Assay results as given in publication PMC4154873, “Delineation of Interfaces on Human Alpha-Defensins Critical for Human Adenovirus and Human Papillomavirus Inhibition” (PLoS Pathogens, 2014).
Where a SMILES comes first, the peptide text is derived from it. Bridges are numbered along the chain shown (N, C = ends).

Legend:
[1] = target: T1, rPenton (fiber and penton base) (Human adenovirus C serotype 5, UniProt P11818+P12538); test: biochemical; type: binding, human AdV-5; conditions: for Kd: SPR Biacore T200, CM5 chip, 2115 RU rPenton, 25°C, HBS EP+ pH 7.4, steady-state fit of RU at 80 sec association, 3 µM to 111 nM, best-fit ± SE
T1 construct: enterokinase recognition site 5′ of the full-length human AdV5 penton base (PB) gene; The baculovirus expression system was used to generate full-length human AdV-5 fiber; enterokinase recognition site (pRSET-A leader) (N); 6xHis followed by Tev protease recognition site (N, cleaved yes); made in house; host or cells: PB: E. coli BL21-CodonPlus (DE3)-RIPL; fiber: HighFive insect cells (baculovirus)
Description: (§1) Experiments were performed on a Biacore T200 system (Biacore, GE Healthcare) at 25°C in HBS EP+ running buffer (9.5 mM HEPES, 142.5 mM NaCl, 2.85 mM EDTA, 0.05% surfactant P20, pH 7.4). The first flow cell on a CM5 sensor chip was reserved to measure background binding, while additional cells were used to immobilize fiber, PB, and rPenton by amine-coupling chemistry. A target density of 2000 resonance units (RU) was selected for rPenton, and for Figure 3D, an equal number of fiber (708 RU) and PB (1292 RU) were also targeted for immobilization. The final RUs immobilized were: 2115 RU rPenton, 889 RU fiber, and 1061 RU PB. Analyte was injected to the flow cells at a rate of 11 µl/min and binding was measured for 3 min, followed by measuring dissociation for 5 min in analyte-free running buffer. The flow cells were regenerated with two 30 s pulses of 10 mM HCl at 11 µl/min separated by 30 s in running buffer. After regeneration, the flow cells were stabilized in running buffer for 2 min before injection of the next analyte. Data analysis was performed using Biacore T200 evaluation software and Prism (version 5.0d).
Affinity (KD) and Bmax were derived by fitting RU values at 80 s post-injection using the Steady State Surface Bound Affinity model in Biacore T200 Evaluation software. Stoichiometry (Sm) of HD5 bound to rPenton at saturation was calculated using the following equation: [drawing 1] (1)

[2] = target: rPenton, recombinant penton capsomere of human AdV-5 fiber and penton base (human AdV-5); test: SPR
AdV5.eGFP [3] = test: Neutralization of AdV5.eGFP pre-bound to A549 cells before addition of HNP1; type: cell-based, human AdV-5; conditions: virus pre-bound to cells, versus wild type HNP1
Description: A549 cell monolayers were infected with serial dilutions of AdV5.eGFP in black wall, clear bottom 96-well plates (Perkin-Elmer, San Jose, CA). Total monolayer fluorescence was quantified with a Typhoon 9400 variable mode imager (GE Healthcare, Piscataway, NJ) 24–30 h post-infection. A virus concentration producing 50–80% maximal signal was chosen for inhibition studies.
Serum-free DMEM (SFM) alone or containing increasing concentrations of wild type or mutant HD5 was incubated with purified AdV5.eGFP for 45 min on ice. The mixture (35 µl/well) was added to a confluent monolayer of A549 cells that had been washed twice in SFM. Cells were then incubated at 37°C for 2 h with rocking, washed, and cultured with complete DMEM for 24–30 h. Plates were scanned for eGFP signal as above, and background-subtracted total well fluorescence was quantified using ImageJ software [36]. […] For assays with HNP1, virus alone in SFM was pre-incubated on a confluent monolayer of A549 cells with rocking for 45 min at 4°C. Cells were then washed twice with chilled SFM, and SFM alone or containing increasing concentrations of wild type or mutant HNP1 was added. Cells were incubated for 45 min at 4°C and then shifted to 37°C. After 2 h, cells were washed twice with complete media and incubated a further 24–30 h at 37°C until eGFP signal was quantified as above.

[4] = target: human AdV-5 fiber (human AdV-5); test: SEC; analytical size exclusion chromatography, Superdex 200 10/300 GL; data not shown
[5] = target: human AdV-5 fiber (human AdV-5); test: immunoblot of samples heated or not before SDS-PAGE; fiber samples heated or not for 5 min to 95°C, 4D2 anti-fiber mAb; data not shown
[6] = target: human AdV-5 penton base (human AdV-5); test: SEC; analytical size exclusion chromatography, Superdex 200 10/300 GL; data not shown
AdV5.eGFP [7] = conditions: cited from earlier work
penton base (PB) = test: SPR binding to immobilized penton base; parameters: species or system human AdV-5; conditions: CAR-Ig at 35 nM, 1061 RU PB
Description: as §1

fiber = test: SPR binding to immobilized fiber; parameters: species or system human AdV-5; conditions: CAR-Ig at 35 nM, 889 RU fiber
Description: as §1

T1 sequence (P11818 whole entry): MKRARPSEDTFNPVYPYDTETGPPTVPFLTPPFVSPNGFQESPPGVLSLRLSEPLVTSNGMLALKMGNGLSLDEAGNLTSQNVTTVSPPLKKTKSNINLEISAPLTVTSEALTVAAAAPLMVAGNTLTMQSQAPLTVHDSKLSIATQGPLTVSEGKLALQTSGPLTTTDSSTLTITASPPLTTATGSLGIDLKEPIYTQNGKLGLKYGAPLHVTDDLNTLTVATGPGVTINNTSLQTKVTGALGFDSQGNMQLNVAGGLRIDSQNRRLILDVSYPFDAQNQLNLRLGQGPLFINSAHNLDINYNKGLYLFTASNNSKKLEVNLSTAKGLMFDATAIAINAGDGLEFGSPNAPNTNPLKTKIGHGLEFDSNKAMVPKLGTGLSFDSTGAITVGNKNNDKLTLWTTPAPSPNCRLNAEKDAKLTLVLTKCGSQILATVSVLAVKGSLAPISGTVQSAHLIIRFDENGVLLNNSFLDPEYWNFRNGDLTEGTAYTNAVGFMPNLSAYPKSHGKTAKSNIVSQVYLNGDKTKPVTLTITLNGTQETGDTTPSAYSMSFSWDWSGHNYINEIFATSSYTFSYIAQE
T1 sequence (P12538 whole entry): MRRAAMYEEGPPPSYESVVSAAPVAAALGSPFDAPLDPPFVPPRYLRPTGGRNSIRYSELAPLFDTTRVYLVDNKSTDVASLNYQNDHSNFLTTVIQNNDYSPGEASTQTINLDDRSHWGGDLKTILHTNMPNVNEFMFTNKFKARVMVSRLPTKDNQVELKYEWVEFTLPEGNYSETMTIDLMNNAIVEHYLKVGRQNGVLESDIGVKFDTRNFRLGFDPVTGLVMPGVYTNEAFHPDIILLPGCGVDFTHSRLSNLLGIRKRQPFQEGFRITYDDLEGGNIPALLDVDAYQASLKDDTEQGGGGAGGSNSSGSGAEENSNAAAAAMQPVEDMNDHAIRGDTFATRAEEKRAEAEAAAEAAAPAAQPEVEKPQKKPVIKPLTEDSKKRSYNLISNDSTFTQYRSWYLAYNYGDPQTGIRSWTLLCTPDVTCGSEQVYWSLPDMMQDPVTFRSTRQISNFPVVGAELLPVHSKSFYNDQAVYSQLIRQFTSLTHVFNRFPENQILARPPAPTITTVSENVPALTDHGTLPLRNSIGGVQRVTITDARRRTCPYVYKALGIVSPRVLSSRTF
rPenton, recombinant penton capsomere of human AdV-5 fiber and penton base (human AdV-5), sequence (P11818 whole entry, chain 1 of 2): as the sequence (P11818 whole entry) above
rPenton, recombinant penton capsomere of human AdV-5 fiber and penton base (human AdV-5), sequence (P12538 whole entry, chain 2 of 2, further chain): as the sequence (P12538 whole entry) above

For `CC[C@H](C)[C@@H]1NC(=O)[C@H](CCC(=O)O)NC(=O)[C@@H]2CSSC[C@@H]3NC(=O)[C@H](Cc4ccc(O)cc4)NC(=O)[C@@H](NC(=O)[C@@H](NC(=O)[C@H](C)N)[C@@H](C)O)CSSC[C@@H](C(=O)N[C@@H](CCCNC(=N)N)C(=O)O)NC(=O)[C@H](CSSC[C@H](NC(=O)[C@H](CCCNC(=N)N)NC(=O)CNC(=O)[C@H]([C@@H](C)O)NC(=O)[C@H](CCCNC(=N)N)NC3=O)C(=O)N[C@@H](C)C(=O)N[C@@H]([C@@H](C)O)C(=O)N[C@@H](CCCNC(=N)N)C(=O)N[C@@H](CCC(=O)O)C(=O)N[C@@H](CO)C(=O)N[C@@H](CC(C)C)C(=O)N[C@@H](CO)C(=O)NCC(=O)N[C@@H](C(C)C)C(=O)N2)NC(=O)[C@H](CC(C)C)NC(=O)[C@H](CCCNC(=N)N)NC(=O)[C@H](Cc2ccc(O)cc2)NC(=O)[C@H](CC(C)C)NC(=O)[C@H](CCCNC(=N)N)NC(=O)CNC(=O)[C@H](CO)NC1=O` [HD5, human α-defensin 5, reference compound] (H-ATCYCRTGRCATRESLSGVCEISGRLYRLCCR-OH; disulfide 3-31, 5-20, 10-30), which Kd [1] is on record?
The Kd was 1.81 ± 0.22 µM.

Which Kd [1] does the source give for `CC[C@H](C)[C@@H]1NC(=O)[C@H](CCC(=O)O)NC(=O)[C@@H]2CSSC[C@@H]3NC(=O)[C@H](Cc4ccc(O)cc4)NC(=O)[C@@H](NC(=O)[C@@H](NC(=O)[C@H](C)N)[C@@H](C)O)CSSC[C@@H](C(=O)N[C@@H](CCCNC(=N)N)C(=O)O)NC(=O)[C@H](CSSC[C@H](NC(=O)[C@H](CCCNC(=N)N)NC(=O)CNC(=O)[C@H]([C@@H](C)O)NC(=O)[C@H](CCCNC(=N)N)NC3=O)C(=O)N[C@@H](C)C(=O)N[C@@H]([C@@H](C)O)C(=O)N[C@@H](CCCNC(=N)N)C(=O)N[C@@H](CCC(=O)O)C(=O)N[C@@H](CO)C(=O)N[C@@H](CC(C)C)C(=O)N[C@@H](CO)C(=O)NCC(=O)N[C@@H](C(C)C)C(=O)N2)NC(=O)[C@H](C)NC(=O)[C@H](CCCNC(=N)N)NC(=O)[C@H](Cc2ccc(O)cc2)NC(=O)[C@H](CC(C)C)NC(=O)[C@H](CCCNC(=N)N)NC(=O)CNC(=O)[C@H](CO)NC1=O` [L29A] (H-ATCYCRTGRCATRESLSGVCEISGRLYRACCR-OH; disulfide 3-31, 5-20, 10-30) here?
Its Kd is 3.82 ± 0.3 µM.

With `CC[C@H](C)[C@@H]1NC(=O)[C@H](CCC(=O)O)NC(=O)[C@@H]2CSSC[C@@H]3NC(=O)[C@H](Cc4ccc(O)cc4)NC(=O)[C@@H](NC(=O)[C@@H](NC(=O)[C@H](C)N)[C@@H](C)O)CSSC[C@@H](C(=O)N[C@@H](CCCNC(=N)N)C(=O)O)NC(=O)[C@H](CSSC[C@H](NC(=O)[C@H](CCCNC(=N)N)NC(=O)CNC(=O)[C@H]([C@@H](C)O)NC(=O)[C@H](CCCNC(=N)N)NC3=O)C(=O)N[C@@H](C)C(=O)N[C@@H]([C@@H](C)O)C(=O)N[C@@H](CCCNC(=N)N)C(=O)N[C@@H](CCC(=O)O)C(=O)N[C@@H](CO)C(=O)N[C@@H](CC(C)C)C(=O)N[C@@H](CO)C(=O)NCC(=O)N[C@@H](C(C)C)C(=O)N2)NC(=O)[C@H](CC(C)C)NC(=O)[C@H](CCCNC(=N)N)NC(=O)[C@H](C)NC(=O)[C@H](CC(C)C)NC(=O)[C@H](CCCNC(=N)N)NC(=O)CNC(=O)[C@H](CO)NC1=O` [Y27A] (H-ATCYCRTGRCATRESLSGVCEISGRLARLCCR-OH; disulfide 3-31, 5-20, 10-30) as the molecule, how does the Kd [1] read?
Its Kd is 3.39 ± 0.27 µM.

With HD5 L29A (peptide) as the molecule, how does the Kd [2] read?
Its Kd is 3.82 µM.

With HD5 Y27A (peptide) as the molecule, how does the Kd [2] read?
The Kd was 3.39 µM.

With HNP1 W26A as the molecule, how does the “Effect of HNP1 mutation on anti-AdV activity (in words)” value (AdV5.eGFP [3]) read?
The value was “most deleterious”.

For human AdV-5 fiber (natural protein), which stoichiometry N [4] is on record?
The stoichiometry N was 3.

What about the stoichiometry N [5] of the same molecule?
The stoichiometry N was 3.

Which stoichiometry N [6] does the source give for “human AdV-5 penton base (natural protein)” here?
Its stoichiometry N is 5.

For human neutrophil peptide 1 [HNP1], which “Ability to neutralize AdV infection compared to HD5 (in words)” value (AdV5.eGFP [7]) is on record?
Its value is “reduced ability to neutralize AdV infection”.

Which Kd [2] does the source give for ATCYCRTGRCATRESLSGVCEISGRLYRLCCR [human α-defensin 5 (HD5), wild type] here?
The Kd was 1.81 µM.

What about the stoichiometry N [2] of the same molecule?
The stoichiometry N was 210.

B1: CAR-Ig: soluble form of the AdV receptor fused to the constant region of rabbit Ig (protein)
chain: LSITTPEEMIEKAKGETAYLPCKFTLSPEDQGPLDIEWLISPADNQKVDQVIILYSGDKIYDDYYPDLKGRVHFTSNDLKSGDASINVTNLQLSDIGTYQCKVKKAPGVANKKIHLVVLVKPSGARCYVDGSEEIGSDFKIKCEPKEGSLPLQYEWQKLSDSQKMPTSWLAEMTSSVISVKNASSEYSGTYSCTVRNRVGSDQCLLRLNVVPPSNK
modifications: left off: Fc (rabbit IgG heavy chain), end not stated, kept
Which results are given for B1?
Binding to immobilized rPenton (in words) [1]: able to bind; Binding to immobilized PB (in words) (penton base (PB)): unable to bind; Binding to immobilized fiber (in words) (fiber): able to bind
